Patent US20170233451A1

Target: human PD-L1 on cells (IFN-gamma-induced SK-MEL-28 melanoma cells; CT26-Tg(hPD-L1)-delta(mPD-L1) cells and tumors) (human) (UniProt Q9NZQ7)
Assay: flow cytometry of a dissociated CT26 hPD-L1 positive tumor four hours after intraperitoneal injection of both labeled agents; same quadrant of the PD-L1 negative tumor: 3.97

Chain of human PD-L1 on cells (IFN-gamma-induced SK-MEL-28 melanoma cells; CT26-Tg(hPD-L1)-delta(mPD-L1) cells and tumors) (human) (Q9NZQ7 19-290 limits assumed, stated change not applied): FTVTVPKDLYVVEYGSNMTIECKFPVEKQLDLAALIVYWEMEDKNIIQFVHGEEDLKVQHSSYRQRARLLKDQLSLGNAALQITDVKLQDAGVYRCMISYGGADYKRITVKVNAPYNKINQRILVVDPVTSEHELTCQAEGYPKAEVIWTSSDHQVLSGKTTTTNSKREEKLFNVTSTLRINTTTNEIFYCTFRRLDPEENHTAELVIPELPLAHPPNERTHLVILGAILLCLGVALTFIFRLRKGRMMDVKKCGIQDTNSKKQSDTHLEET

% of cells in the quadrant Anti-hPD-L1 488 positive, HAC 594 negative (lower right): 2.22%
Substance: AlexaFluor488-labeled anti-PD-L1 antibody (clone 29E.2A3, BioLegend)
